{"source": "patent US20250263697", "key": {"[1]": {"test_system": "NSP8 (primase) (SARS-CoV-2)"}, "[2]": {"target": "NSP12 (RNA-dependent RNA polymerase) (SARS-CoV-2) (UniProt P0DTD1)"}, "[3]": {"test_system": "N (nucleocapsid) (SARS-CoV-2)", "conditions": "eCLIP in infected Vero E6 cells"}}, "data": [{"substance": "SARS-CoV-2 genome 5' end, positive strand", "values": [{"measurement": "binding signal", "setting": "[1]", "result": 107, "unit": "fold"}, {"measurement": "binding signal", "setting": "[2]", "result": 573, "unit": "fold"}]}, {"substance": "SARS-CoV-2 genome 7436-7526, positive strand", "values": [{"measurement": "binding signal", "setting": "[2]", "result": 13.7, "unit": "fold"}]}, {"substance": "SARS-CoV-2 genome 9602-9620, positive strand", "values": [{"measurement": "binding signal", "setting": "[3]", "result": 9.5, "unit": "fold"}]}]}
